Assay results from publication PMC10455477, “The Roles of Coenzyme A Binding Pocket Residues in Short and Medium Chain Acyl-CoA Synthetases” (Life, 2023).
Substitutions are numbered along the chain they refer to. Numbers in names are those of the source.

B1: MacsMa (Methanosarcina acetivorans C2A) (protein)
chain: MTSLLSQFVSKTDFESYEDFQENFKILVPENFNFAYDVVDVYARDSPEKLAMIWCDDYGNEKIFTFKDLKYYSDKAANFFVKHGIGKGDYVMLTLKSRYDFWYCMLGLHKLGAIAVPATHMLKTRDIVYRIEKAGLKMIVCIAEDDVPEQVDEAHAECGDIPLKKAKVGGDVLEGWIDFRKELEESSPIFERPTGEVSTKNEDICLVYFSSGTAGFPKMVEHDNTYPLGHILTAKYWQNVEDDGLHYTVADSGWGKCVWGKLYGQWIAGCAVFVYDYDRFEAKNMLEKASKYGVTTFCAPPTIYRFLIKEDLSHYNFSTLKYAVVAGEPLNPEVFNRFLEFTGIKLMEGFGQTETVVTIATFPWMEPKPGSIGKPTPGYKIELMDRDGRLCEVGEEGEIVINTMEGKPVGLFVHYGKDPERTEETWHDGYYHTGDMAWMDEDGYLWFVGRADDIIKTSGYKVGPFEVESALIQHPAVLECAITGVPDPVRGQVIKATIVLTKDYTPSDSLKNELQDHVKNVTAPYKYPRIIEFVPELPKTISGKIRRVEIRDKDQSQ
B2: MacsMa (Methanosarcina acetivorans C2A; K464A) (protein)
chain: B1 chain with K461A
notes: recombinant, E. coli Rosetta Blue (DE3) placI; His-Trap purified
B3: MacsMa (Methanosarcina acetivorans C2A; K522R) (protein)
chain: B1 chain with K519R
notes: as for B2
B4: MacsMa (Methanosarcina acetivorans C2A; G462A) (protein)
chain: B1 chain with G459A
notes: as for B2
B5: MacsMa (Methanosarcina acetivorans C2A; K464R) (protein)
chain: B1 chain with K461R
notes: as for B2

Legend:
AcsMt = tested on: T1, AcsMt; assay: hydroxamate assay, A540; assay type: biochemical, Methanothermobacter thermautotrophicus; details: acetate and MgATP saturating; 65 °C; apparent Km
T1 construct: gene acs; recombinant, E. coli Rosetta Blue (DE3) placI; His-Trap purified
Text: hydroxamate assay, A540 on AcsMt

MacsMa = biological target: T2, MacsMa (Methanosarcina acetivorans, UniProt Q8TLW1); assay: inhibition of propionyl-adenylate synthetase activity; assay type: biochemical; details: read-out: % inhibition at 15 mM
T2 construct: gene MA_2912; recombinant, E. coli Rosetta Blue (DE3) placI; His-Trap purified

purified protein [1] = substrate: CC(C)(COP(=O)(O)OP(=O)(O)OC[C@H]1O[C@@H](n2cnc3c(N)ncnc32)[C@H](O)[C@@H]1OP(=O)(O)O)[C@@H](O)C(=O)NCCC(=O)NCCS; assay: purified protein; details: 2-methylbutyrate and ATP saturating, pH 7.5, 55 °C, apparent Km
purified protein [2] = substrate: CCC(=O)O; assay: purified protein; details: no CoA, ATP saturating, 55 °C, apparent Km
purified protein [3] = substrate: Nc1ncnc2c1ncn2[C@@H]1O[C@H](COP(=O)(O)OP(=O)(O)OP(=O)(O)O)[C@@H](O)[C@H]1O; assay: purified protein; details: 2-methylbutyrate and CoA saturating, pH 7.5, 55 °C, apparent Km
[4] = substrate: CC(C)(COP(=O)(O)OP(=O)(O)OC[C@H]1O[C@@H](n2cnc3c(N)ncnc32)[C@H](O)[C@@H]1OP(=O)(O)O)[C@@H](O)C(=O)NCCC(=O)NCCS; assay: 2-methylbutyryl-CoA synthetase activity; assay type: biochemical, Methanosarcina acetivorans; details: 2-methylbutyrate and ATP saturating, pH 7.5, 55 °C, apparent Km
Text: 2-methylbutyryl-CoA synthetase activity on MacsMa

| Molecule | Km [4] [µM] | kcat [4] [s⁻¹] | also measured |
| --- | --- | --- | --- |
| CC(C)(COP(=O)(O)OP(=O)(O)OC[C@H]1O[C@@H](n2cnc3c(N)ncnc32)[C@H](O)[C@@H]1O)[C@@H](O)C(=O)NCCC(=O)NCCS [3′-dephospho CoA] |  |  | Km (AcsMt): 2160 ± 500 µM |
| CC(C)(COP(=O)(O)OP(=O)(O)OC[C@H]1O[C@@H](n2cnc3c(N)ncnc32)[C@H](O)[C@@H]1OP(=O)(O)O)[C@@H](O)C(=O)NCCC(=O)NCCS [CoA] |  |  | inhibition at 15000 µM (MacsMa): ~40% |
| B1 |  |  | Km (purified protein [1]): 4090 ± 450 µM; kcat (purified protein [1]): 2.15 ± 0.1 s⁻¹; Km (purified protein [2]): 29100 ± 300 µM; kcat (purified protein [2]): 10.67 ± 1.34 s⁻¹; Km (purified protein [3]): 4210 ± 110 µM |
| B2 | 2190 ± 180 | 0.55 ± 0.03 |  |
| B3 | 7180 ± 290 | 1.07 ± 0.02 |  |
| B4 | 2090 ± 60 | 0.41 ± 0.01 |  |
| B5 | 1380 ± 140 | 0.46 ± 0.1 |  |
